1 molecule from patent US20260055211A1 can be followed below.

Assay [1] deals with anti-PR3 autoantibodies in PR3+ANCA patient serum. The assay is described as follows: blocking ELISA: 1:100 serum pre-incubated 30 min with 0 to 100 µg/ml m1, c-ANCA ELISA kit; patient samples 1, 7, 24 and 58.
For assay [2] the target is unchanged. The assay is described as follows: depletion with m1-coated magnetic beads (1 mg beads, 1:50 serum, 10 min), flow-through measured by c-ANCA ELISA; five patient sera. For orientation: In an ELISA, binding on a coated surface is turned into a signal by an enzyme label.
Assay [3] shares this target. The assay is described as follows: blocking ELISA: 1:100 serum pre-incubated 30 min with 0 to 600 µg/ml m1, c-ANCA ELISA kit; 14 out of 15 patient sera of low, medium and high titer.
For assay [4] the target is unchanged. The assay is described as follows: competition ELISA, low-titer serum ANCA 93 (1:100) pre-incubated with the binder, unblocked anti-PR3 IgG on a c-ANCA (PR3) ELISA kit, % of untreated.
Assay [5] has the same target. The assay is described as follows: competition ELISA: serum PR3+ ANCA 1 (1:100) pre-incubated with the binder, unblocked anti-PR3 IgG measured on a c-ANCA (PR3) ELISA kit, % of untreated.
Assay [6] has the same target. The assay is described as follows: competition ELISA, medium-titer serum ANCA 65 (1:100) pre-incubated with the binder, unblocked anti-PR3 IgG on a c-ANCA (PR3) ELISA kit, % of untreated.
The target is the same in assay [7]. The assay is described as follows: competition ELISA, medium-titer serum ANCA 97 (1:100) pre-incubated with the binder, unblocked anti-PR3 IgG on a c-ANCA (PR3) ELISA kit, % of untreated.
The target is the same in assay [8]. The assay is described as follows: pull-down with binder-coated magnetic beads, serum PR3+ ANCA 4; 100 - (anti-PR3 IgG after binder beads / after control-protein beads x 100), c-ANCA ELISA.
For assay [9] the target is unchanged. The assay is described as follows: pull-down with binder-coated magnetic beads, serum PR3+ ANCA 60; 100 - (anti-PR3 IgG after binder beads / after control-protein beads x 100), c-ANCA ELISA.
For assay [10] the target is unchanged. The assay is described as follows: pull-down with binder-coated magnetic beads, serum PR3+ ANCA 91; 100 - (anti-PR3 IgG after binder beads / after control-protein beads x 100), c-ANCA ELISA.
Assay [11] has the same target. The assay is described as follows: pull-down with binder-coated magnetic beads, serum PR3+ ANCA 93; 100 - (anti-PR3 IgG after binder beads / after control-protein beads x 100), c-ANCA ELISA.
For assay [12] the target is unchanged. The assay is described as follows: pull-down with binder-coated magnetic beads, serum PR3+ ANCA 97; 100 - (anti-PR3 IgG after binder beads / after control-protein beads x 100), c-ANCA ELISA.

Some results are limits rather than exact numbers.

B1: PR3 glycoengineered polypeptide (protein)
chain: IVGGHEAQPHSRPYMASLQMRGNPGSHFCGGTLIHPSFVLTAAHCLRDIPQRLVNVVLGAHNVRTQEPTQQHFSVAQVFLNNYDAENKLNDVLLIQLSSPANLSASVATVQLPQQDQPVPHGTQCLAMGWGRVGAHDPPAQVLQELNVTVVTAACRPHNICTFVPRRKAGICFGDAGGPLICDGIIQGIDSFVIWGCATRAAPDFFTRVALYVDWIRSTLRRVEAKGRPGGGGANSTAPAPAPAHHHHHHHHHH
modifications: N-glycans (81.5% A2GalNAc2, biantennary GalNAc-terminated) at the native sites N129 and N174 (numbering of UniProt P24158) and at the Asn of the C-terminal glycotag; 80-90% of molecules fully …
Consider B1, for which the residual binding percentage (residual autoantibodies against untreated serum) in assay [1] and in [3] was below 50% throughout. In addition, the percentage of depletion of anti-PR3 autoantibodies in assay [2] is above 50%. Moreover, the IC50 (read off the curve) in assay [4] worked out at 0.5 µg/mL; in assay [5], 0.4 µg/mL; in assay [6], 0.4 µg/mL; in assay [7], 0.2 µg/mL. In addition, the % of depletion turned out to be 81% in assay [8]; 91% in [9]; 53% in assay [10]; 88% in [11]; 51% in [12].
